Test results: patent US20220315908A1, “NOVEL GARDNERELLA ENDOLYSINS AND USES THEREOF” (priority 2019, published 2022)

Columns and labels:
[1] = test system: G. vaginalis sensu stricto strain Gv_9; assay: Quantitative reduction in viable CFU assay in bacterial suspension; type: cell-based, Gardnerella vaginalis sensu stricto; conditions: for median surviving cells after incubation with imidazole: 5×10^7 CFU/ml start, 5 hours 37° C. anaerobic
Experimental: The lysis activity on the four main species of Gardnerella of 91 constructs (natural and domain-swapped endolysins) was quantitatively assessed using the method described in Reference Example 2. […]
(§1) The results are shown in FIGS. 8A to 8D together with Tables 5A to 5C. In FIGS. 8A to 8D, the logarithmic Y axis depicts the count of surviving cells. The dotted line indicates the limit of detection (LOD) given by plating of 2 ul of the reaction mix (500 CFU/ml). Each combination of the natural 10 H-domains and the natural 9 B-regions was assessed, including the natural endolysins (H1B1, H2B2, H3B3, etc.), plus H6B6. […] The activity of each construct was measured on each of the 4 main Gardnerella species G. vaginalis sensu stricto, G. leopoldii, G. piotii, and G. swidsinkii. All conditions have been measured in triplicate. The survival after 5 hours incubation at pH 5.0 under anaerobic conditions with endolysins vs. buffer was measured by quantitative plating. The values indicate the log 10 of the ratio of surviving CFU for treated vs. untreated cells. The average of the triplicate measurements is used. In tables 5A and 5B, high negative log 10 values, e.g. −6.7, −5.5, −4.8 etc. are associated with high enzymatic activity, while log 10 values closer to zero or even positive log 10 values are associated with low or no enzymatic activity. […] Inversely, a reduction value of −3.7 means a 10^3.7-fold (=5012-fold) reduction of viable CFU in treated sample vs. untreated control.
(§2) Gardnerella cells were recovered from cryo stock by plating on Chocolate Agar plates (Beckton Dickinson) and incubating for 48 h at 37° C. under anaerobic conditions. For Lactobacilli, BD Schaedler/5% sheep blood agar plates were used instead. Colonies were scraped from the plate, resuspended in Hardy Broth or NYC-III-HS-5.0 at the pH as indicated, and the suspension adjusted to OD (610 or 620 nm as indicated) 0.1. It has to be noted that two Tecan Microplate readers, having respectively a 610 nm or 620 nm filter, have been used interchangeably in the experiments. Although it doesn't make any difference for the experiments, the exact wavelength used is specified in each example. If not stated otherwise, 90 μl cell suspension was mixed with 10 μl endolysin solution, for the different species/endolysin combinations, in 384-well plates. OD(610-620 nm as indicated) was measured at the beginning of the reaction and at the end, either as two measurement points or as a continuous kinetic in a Tecan F200 Microplate reader. The reactions were incubated for 5 hours (or otherwise the time indicated) at 37° C. under anaerobic, micro-aerophilic or aerobic conditions as indicated. Anaerobic conditions intend that oxygen was fully depleted from the container in which the bacteria are incubated (Sigma-Aldrich anaerobic jar or sealable lunch box) with an anaerobic sachet, and the lack of oxygen was confirmed with an anaerobic indicator inside the container. Where micro-aerophilic conditions are indicated, the candle-in-a-jar method was used (tea candle lit in an appropriate sealable container, which reduces oxygen levels until the flame dies out). Then each well was diluted in 5 steps (10^−1 to 10^−5) using 96-U-well bottom plates, and 2 μl of each dilution of each reaction mix are plated on BD Chocolate agar plates or BD Schaedler/5% sheep blood agar plates for Gardnerella and Lactobacilli, respectively, for detecting and quantifying surviving CFU. Detection plates were incubated at 37° C. for 48 hours under anaerobic conditions.

[2] = test system: all tested Gardnerella strains; assay: MIC and MBC microbroth dilution, stated over all tested strains; type: cell-based; conditions: first round: […]10^7 CFU/ml, 48 h anaerobic (FIG. 14)
Experimental: One of the main deficiencies in the treatment of BV is the high rate of recurrence in many women, which leads to repeated administration of antibiotics and concomitant destabilization of the microbiome and other side effects. The minimal inhibitory concentration (MIC) and minimal bactericidal concentration (MBC) on Gardnerella cells of the strains also used for the endolysin activity assays were then measured using the method described in Reference Example 6 and 7. […] Essentially, Gardnerella suspensions at 2.5×10^7 CFU/ml were incubated with the concentration of antibiotics as indicated and incubated for 48 h at 37° C. under anaerobic conditions. […] OD(610) was measured at the beginning and the end of the experiment. At the end of the experiment, 2 ul of each reaction mix was spotted on agar to determine the MBC.
The conditions under which MIC and MBC were measured are more rigorous than the standard.
Example 7—Activity assays of a representative (H2B10) of domain swapped endolysins on the growth in suspension of different Gardnerella strains. […] The conditions under which MBC was measured are more rigorous than the standard. […] In general, it is known, that antibiotics only insufficiently eradicate the Gardnerella biofilm, a hallmark of BV, which is one suspected reason for the reported very high recurrence rate of BV. Despite leaving residual viable biofilm, antibiotics wipe parts of the beneficial organisms of the vaginal microbiome which then opens an ecological niche for other pathogens, e.g. fungi.
Bacteria were plated from cryo stock on BD Choc Agar plates (Gardnerella) and incubated at 37° C. for 48 h under anaerobic conditions. Colonies were scraped from the plate, resuspended in Hardy Broth or NYC-III-HS-pH 5.0, and the suspension adjusted to OD (610 or 620 nm as indicated) 0.05. It has to be noted that two Tecan Microplate readers, having respectively a 610 nm or 620 nm filter, have been used interchangeably in the experiments. Although it doesn't make any difference for the experiments, the exact wavelength used is specified in each example. Antibiotics were prepared as 20× stocks for each of the required final concentrations. […] OD (610-620 as indicated) at the start of the reaction was measured, then the plate was incubated at 37° C. for 48 h under anaerobic conditions. After that, the OD (610-620 as indicated) was measured again for MIC determination, where MIC was defined as the lowest concentration of antibiotic where the OD (610-620 as indicated) was not above the level measured at the beginning of the experiment. […] After incubation, cell growth on each spot was evaluated, and the MBC defined as the lowest concentration of antibiotics where no bacteria grew on the plate.

[3] = test system: four Gardnerella strains (Gv_9, Gv_11, Gv_17, Gv_23); assay: CFU reduction averaged across the four Gardnerella strains, with activity ranks; type: cell-based
Experimental: (§3) The lysis activity on the four main species of Gardnerella of 91 constructs (natural and domain-swapped endolysins) was quantitatively assessed using the method described in Reference Example 2. Briefly, 90 ul 5e7 CFU/ml of the indicated strain were incubated for 5 hours at pH 5.0 under anaerobic conditions with 10 ul endolysin (concentration adjusted to 0.2 mg/ml where possible, see Table 4).
as §1
as §2, with “out).” for “out). Then each well was diluted in 5 steps (10^−1 to 10^−5) using 96-U-well bottom plates, and 2 μl of each dilution of each reaction mix are plated on BD Chocolate agar plates or BD Schaedler/5% sheep blood agar plates for Gardnerella and Lactobacilli, respectively, for detecting and quantifying surviving CFU. Detection plates were incubated at 37° C. for 48 hours under anaerobic conditions.”

[4] = test system: G. leopoldii strain Gv_11; assay: Quantitative reduction in viable CFU assay in bacterial suspension; type: cell-based, Gardnerella leopoldii; conditions: 5 hours, pH 5.0, anaerobic, 10 ul endolysin (0.2 mg/ml where possible) + 90 ul 5e7 CFU/ml, average of triplicate
Experimental: as §3, §1, §2

[5] = test system: G. piotii strain Gv_17; assay: as above; type: cell-based, Gardnerella piotii; conditions: 5 hours, pH 5.0, anaerobic, 10 ul endolysin (0.2 mg/ml where possible) + 90 ul 5e7 CFU/ml, average of triplicate
Experimental: as §3, §1, §2

[6] = test system: G. swidsinskii strain Gv_23; assay: as above; type: cell-based, Gardnerella swidsinskii; conditions: 5 hours, pH 5.0, anaerobic, 10 ul endolysin (0.2 mg/ml where possible) + 90 ul 5e7 CFU/ml, average of triplicate
Experimental: as §3, §1, §2

## c1c[nH]cn1 [imidazole]
[1]; pH 6.0
  median surviving cells after incubation with imidazole: 1×10^6 CFU/ml
[1]; pH 7.0
  median surviving cells after incubation with imidazole: 3×10^4 CFU/ml

## CCC[C@@H]1C[C@@H](C(=O)N[C@@H]([C@H]2O[C@H](SC)[C@H](O)[C@@H](O)[C@H]2O)[C@H](C)Cl)N(C)C1 [Clindamycin]
[2]
  MIC over all Gardnerella strains: > 8 µg/mL

B1: H6B6: natural Gardnerella prophage endolysin from strain 1400E, truncated at the C-terminus (protein)
chain: MSKKGIDVSVWQGDIDFNAVKASGVEFVIIRAGYGIGCKDKWFEQNYRKAKTCGLDVGAYWYSYANSGFEAAEEAQSCVNMLSGKSFEYPVYFDLEEKSQLNRGRAFCDSLITSFCSKLESCGYYAGFYTSLSTANNLVSAHVRNRYALWIAQWNTHCDYQGSYGLWQYSSSGSVPGVAGRVDMDYAYKNYPSIIKNAGLNGCKNGGSNQAARTSSIDDVAREVINGAWGNGNERKQRLTQAGYDYASVAK
modifications: EL6_strain_1400E_frameshift
notes: natural Gardnerella prophage endolysin from strain 1400E, truncated at the C-terminus
[1]; Gv_9, 5 hours, pH 5.0, anaerobic, 10 ul endolysin (0.2 mg/ml where possible) + 90 ul 5e7 CFU/ml, average of triplicate
  log 10 of the ratio of surviving CFU for treated vs. untreated cells: 0.1 log 10
[3]; across the Gardnerella strains tested
  killing activity against Gardnerella, in words: complete inactivity
[3]; pH 5.0, 5 hours, anaerobic
  average of the log 10 activities of each construct across the four Gardnerella strains: 0.0 log 10
[3]; rank 1-91, based on the data of Table 5B
  activity rank of all endolysins: 86
[4]
  log 10 of the ratio of surviving CFU for treated vs. untreated cells: 0.2 log 10
[5]
  log 10 of the ratio of surviving CFU for treated vs. untreated cells: −0.2 log 10
[6]
  log 10 of the ratio of surviving CFU for treated vs. untreated cells: −0.1 log 10
